{
  "source": "patent US20190091227A1",
  "about": "“METHODS FOR TREATING ER+, HER2-, HRG+ BREAST CANCER USING COMBINATION THERAPIES COMPRISING AN ANTI-ERBB3 ANTIBODY” (Merrimack Pharmaceuticals, Inc., priority 2016, published 2019)",
  "key": {"[1]": {"details": "cited from earlier work"}, "CDK2": {"test_system": "CDK2", "test": "CDK2 activation (phospho-Thr160) by Western blotting in MCF7 cells", "type": "cell-based, human", "details": "for CDK2 activation: MCF7, agent alone, 20-24 hours, HRG 10 nM, fulvestrant, palbociclib, abemaciclib 100 nM", "description": "Cellular lysates were prepared by lysis in MPER lysis buffer with the addition of protease and phosphatase inhibitors for 30 minutes on ice. Cellular debris was removed by centrifugation at 10,000 rpm. Proteins were analyzed by Western blotting according to standard protocols."}, "RB": {"test_system": "RB", "test": "RB phosphorylation (S807/811, S780) by Western blotting in MCF7 cells", "type": "cell-based, human", "details": "MCF7, 20-24 hours; HRG 10 nM, fulvestrant 50 nM, palbociclib, abemaciclib 40 nM", "description": "MCF7 cells were cultured as described above. […] Cellular lysates were prepared by lysis in MPER lysis buffer with the addition of protease and phosphatase inhibitors for 30 mins on ice. Cellular debris were removed by centrifugation at 10,000 rpm. Proteins were analyzed by Western blotting according to standard protocols. Protein loading was estimated by blotting with a β-actin antibody (β-Actin (13E5) Rabbit mAb #4970 Cell Signal) and RB activation was measured by detection of phosphorylation of RB (pRB) at pRb (S807/811): Cat #8516 pRb (S780): Cat #8180. Control antibodies as follows total AKT: Cat #9272 pAKT: Cat #4060."}, "MCF7 cells [2]": {"test_system": "MCF7 cells", "test": "Proliferation assay (Cell Titer-Glo), MCF7", "type": "cell-based, human", "description": "(§1) Cells were seeded in duplicate or triplicate at 1500 to 5000 cells per well in 96 well plates, Opaque-walled 96-well plates with clear bottom: 96-well, Black/Clear, Flat bottom with lid, FALCON, 353219 in reduced serum conditions at either 3% v/v FBS or 1% v/v FBS. The day after plating recombinant HRGβ1 was added to yield a final concentration of 10 nM. Control wells received media without HRGβ1. Plates were then incubated for the indicated time period of 4 to 6 days at 37° C. in a humid atmosphere with 95% air, 5% CO2.\n(§2) The day after plating recombinant HRGβ1 was added to yield a final concentration of 10 nM. Control wells received media without HRGβ1. […] Where indicated CDK inhibitors were added at 10 μM and dilutions were performed to generate a dose-response curve with 2 controls wells per row. Plates were then incubated for the indicated time period of 4 to 6 days at 37° C. in a humid atmosphere with 95% air, 5% CO2. Growth inhibition was calculated as a function of the relative inhibition or proliferation of cells treated with either growth factor or antagonists to cells treated with diluent only, over the same time period.\n(§3) The day after plating recombinant HRGβ1 was added to yield a final concentration of 10 nM. Control wells received media without HRGβ1. […] Where indicated CDK inhibitors were added at 10 μM and dilutions were performed to generate a dose-response curve with 2 controls wells per row. Plates were then incubated for the indicated time period of 4 to 6 days at 37° C. in a humid atmosphere with 95% air, 5% CO2.\n(§4) To measure proliferation, Cell Titer-Glo (CTG) assays were performed as per manufacturer's instructions. Specifically, reagent-1 and reagent-2 were equilibrated to room temperature at which point reagent-1 was added to reagent-2 and mixed by vortex. Test plates containing cells were equilibrated to room temperature for 30 minutes at which point an equal volume of CTG reagent was added to each well of the test plate, typically 100 μl to give a final volume of 200 μl per well. Each plate was then sealed with a foil plate sealer and mixed on an orbital shaker for 10 minutes to lyse cells and release cellular ATP. Following mixing plates were incubated at room temperature for 15 minutes to stabilize the luminescent signal. Data was collected by measuring relative luminescence on a Synergy H1 plate reader using the luminescence program. Growth was calculated and expressed as a relative value to the unstimulated control wells on each individual plate. Growth inhibition was calculated as a function of the relative inhibition of cells treated with antagonists to the growth of cells treated with diluent only, over the same time period. Data was then plotted using GraphPad Prism software."}, "MCF7 cells [3]": {"test_system": "MCF7 cells", "test": "Cell cycle / S-phase by EdU incorporation and flow cytometry in MCF7 cells", "type": "cell-based, human", "description": "FIG. 13 is a representative FACS plot of the cell cycle distribution. The gate settings and percentage for cells in G0/G1, S and G2/M phases are indicated. DNA synthesis (S-phase) was determined by quantifying cells positive for both EdU incorporation and DNA content."}, "[4]": {"test_system": "metastatic ER-positive HER2-negative breast cancer", "details": "letrozole plus palbociclib, combination arm; cited from earlier work"}, "ZR75-1 cells": {"test_system": "ZR75-1 cells", "test": "Proliferation assay (Cell Titer-Glo), ZR75-1", "type": "cell-based, human", "details": "ZR75-1", "description": "as §2\nThe day after plating recombinant HRGβ1 was added to yield a final concentration of 10 nM. Control wells received media without HRGβ1. […]\n(§5) To measure proliferation, Cell Titer-Glo (CTG) assays were performed as per manufacturer's instructions. […] Data was collected by measuring relative luminescence on a Synergy H1 plate reader using the luminescence program. Growth was calculated and expressed as a relative value to the unstimulated control wells on each individual plate. Growth inhibition was calculated as a function of the relative inhibition of cells treated with antagonists to the growth of cells treated with diluent only, over the same time period. […]"}, "T47D cells": {"test_system": "T47D cells", "test": "Proliferation assay (Cell Titer-Glo), T47D", "type": "cell-based, human", "description": "as §1, §2, §3, §4"}, "MCF7 cells [5]": {"test_system": "MCF7 cells", "test": "Proliferation assay (Cell Titer-Glo), MCF7", "type": "cell-based, human", "details": "MCF7, ligands 1 nM, fulvestrant 50 nM, palbociclib 40 nM, 6 days"}, "HCC1428 cells": {"test_system": "HCC1428 cells", "test": "Proliferation assay (Cell Titer-Glo), HCC1428", "type": "cell-based, human", "details": "HCC1428, stimulated with HRG for 6 days", "description": "as §1\nas §5, with “instructions. Specifically, reagent-1 and reagent-2 were equilibrated to room temperature at which point reagent-1 was added to reagent-2 and mixed by vortex.” for “instructions.”"}},
  "note": "Entries after “also recorded” stand apart in the source; their conditions may differ. Where two headings read alike, the source gives them in different places.",
  "data": [
    {"molecule": "CC(=O)c1c(C)c2cnc(Nc3ccc(N4CCNCC4)cn3)nc2n(C2CCCC2)c1=O", "note": "[palbociclib, 6-acetyl-8-cyclopentyl-5-methyl-2-{[5-(piperazin-1-yl)pyridin-2-yl]amino}pyrido[2,3-d]pyrimidin-7(8H)-one]", "values": [
      {"measurement": "solubility", "setting": "[1]; above pH 4", "result": "reduces significantly"},
      {"measurement": "solubility", "setting": "[1]; at or below pH 4", "result": "high-solubility compound"},
      {"measurement": "CDK2 activation", "setting": "CDK2", "result": "inhibited CDK2 activation"},
      {"measurement": "RB phosphorylation / activation", "setting": "RB", "result": "decrease RB activation"},
      {"measurement": "proliferation", "setting": "MCF7 cells [2]; MCF7, single agent CDK4/6 inhibitor over a dose range, 6 days", "result": "inhibited proliferation in a dose dependent manner"},
      {"measurement": "S-phase cell cycle progression", "setting": "MCF7 cells [3]; MCF7, single agents in the absence of HRG", "result": "efficacious at inhibiting S-phase cell cycle progression"},
      {"measurement": "overall survival", "setting": "[4]", "result": "did not reach statistical significance"},
      {"measurement": "progression free survival (PFS)", "setting": "[4]", "result": "statistically significant increase"}
    ]},
    {"molecule": "HRG: heregulin, naturally occurring ligand of ErbB3; recombinant HRGβ1 from R&D Systems used in the assays (protein) SHLVKCAEKEKTFCVNGGECFMVKDLSNPSRYLCKCPNEFTGDRCQNYVMASFYKHLGIEFMEAE", "values": [
      {"measurement": "effect of HRG on inhibition of CDK2 activation by fulvestrant, palbociclib or abemaciclib", "setting": "CDK2; MCF7, HRG 10 nM", "result": "blocked this inhibitory activity"},
      {"measurement": "CDK2 activation", "setting": "CDK2", "result": "can activate CDK2"},
      {"measurement": "RB phosphorylation / activation", "setting": "RB", "result": "promoted the phosphorylation and activation of RB"},
      {"measurement": "effect of HRG on the CDK4/6 inhibitor-fulvestrant combination", "setting": "MCF7 cells [2]; MCF7", "result": "blocked"},
      {"measurement": "effect of HRG on CDK4/6 inhibitor activity", "setting": "MCF7 cells [2]; MCF7, HRG 10 nM, CDK4/6 inhibitor dose range", "result": "significantly repressed CDK4/6 inhibitor activity"},
      {"measurement": "proliferation", "setting": "MCF7 cells [2]; MCF7, estradiol and HRG in combination", "result": "increased proliferation"},
      {"measurement": "proliferation", "setting": "MCF7 cells [2]; MCF7, stimulated with HRG for 6 days", "result": "induced proliferation; also recorded: significantly increased the proliferation"},
      {"measurement": "effect of HRG on CDK4/6 inhibitor activity", "setting": "ZR75-1 cells", "result": "inhibited the activity of CDK4/6 inhibitors"},
      {"measurement": "proliferation", "setting": "T47D cells; estradiol and HRG in combination", "result": "increased proliferation"},
      {"measurement": "inhibiting fulvestrant, palbociclib and combination activity, ligand comparison", "setting": "T47D cells; ligands 1 nM, fulvestrant 50 nM, palbociclib 40 nM, 6 days", "result": "most effective ligand"},
      {"measurement": "proliferation", "setting": "T47D cells; stimulated with HRG for 6 days", "result": "induced proliferation; also recorded: significantly increased the proliferation"},
      {"measurement": "inhibiting fulvestrant, palbociclib and combination activity, ligand comparison", "setting": "MCF7 cells [5]", "result": "most effective ligand"},
      {"measurement": "proliferation", "setting": "HCC1428 cells", "result": "induced proliferation"},
      {"measurement": "effect of HRG on cell cycle inhibitory activity of the palbociclib-fulvestrant combination", "setting": "MCF7 cells [3]; MCF7", "result": "blocked the cell cycle inhibitory activity"},
      {"measurement": "proportion of cells in the S-phase", "setting": "MCF7 cells [3]; MCF7, 24 hours, resting cells 15.8%", "result": 55, "unit": "%"},
      {"measurement": "effect of HRG on cell cycle inhibitory activity of fulvestrant or palbociclib", "setting": "MCF7 cells [3]; MCF7, single agents", "result": "significantly inhibited"}
    ]}
  ]
}
